# Experimental data as given in patent US12065471B2, “B*44 restricted peptides for use in immunotherapy against cancers and related methods” (Immatics Biotechnologies GmbH, priority 2018, dated 2024).
# Target: HLA-B*44:05 (Homo sapiens, UniProt P01889, A223V/A65T/A93T/A95T/D201E/D98Y/E176V/E187L/E204Q/E69K/G107R/H137Y/K202T/L105A/L119I/N104T/N87E/Q56L/Q94N/R106L/R155S/R180D/S101N/S121R/S35A/S48T/T118I/V36M/W191S/Y91S)
# Experiment: MHC binding assay (UV-ligand exchange, β2m ELISA, peptide exchange yield)
# Details: binding to HLA-B*44:05
# Description: Candidate peptides for T cell-based therapies according to the present invention were further tested for their MHC binding capacity (affinity). The individual peptide-MHC complexes were produced by UV-ligand exchange, where a UV-sensitive peptide is cleaved upon UV-irradiation and exchanged with the peptide of interest as analyzed. Only peptide candidates that can effectively bind and stabilize the peptide-receptive MHC molecules prevent dissociation of the MHC complexes. To determine the yield of the exchange reaction, an ELISA was performed based on the detection of the light chain (β2m) of stabilized MHC complexes. The assay was performed as generally described in Rodenko et al. (Rodenko et al., 2006)
# 96 well MAXISorp plates (NUNC) were coated over night with 2 μg/ml streptavidin in PBS at room temperature, washed 4× and blocked for 1 h at 37° C. in 2% BSA containing blocking buffer. Refolded HLA-A*02:01/MLA-001 monomers served as standards, covering the range of 15-500 ng/ml. Peptide-MHC monomers of the UV-exchange reaction were diluted 100-fold in blocking buffer. Samples were incubated for 1h at 37° C., washed four times, incubated with 2 μg/ml HRP conjugated anti-β2m for 1h at 37° C., washed again and detected with TMB solution that is stopped with […]. Absorption was measured at 450 nm.
row,"Peptide exchange (MHC class I binding score, peptide exchange yield)",Substance
1,++ (>20% = ++),214 (SVNPIIYGF; listed as Homo sapiens) [compound 214]
2,++ (>20% = ++),216 (AGSPVMRKW; listed as Homo sapiens) [compound 216]
3,++ (>20% = ++),217 (EVEVGDRTDW; listed as Homo sapiens) [compound 217]
4,+++ (>50 = +++),218 (REAEEKEAQL; listed as Homo sapiens) [compound 218]
5,+++ (>50 = +++),219 (WEVEVGDRTDW; listed as Homo sapiens) [compound 219]
6,++++ (>75% = ++++),220 (EEEVFSGMKL; listed as Homo sapiens) [compound 220]
7,++++ (>75% = ++++),221 (KEAFGPQAL; listed as Homo sapiens) [compound 221]
8,+++ (>50 = +++),222 (SEDTIHTHL; listed as Homo sapiens) [compound 222]
9,+++ (>50 = +++),223 (SEVEGLAFV; listed as Homo sapiens) [compound 223]
10,++ (>20% = ++),224 (TETDIDREY; listed as Homo sapiens) [compound 224]
11,+++ (>50 = +++),225 (VEAATVSKW; listed as Homo sapiens) [compound 225]
12,+++ (>50 = +++),226 (AEDNMVTSY; listed as Homo sapiens) [compound 226]
13,+ (>10% = +),227 (ALTEDSIDDTF; listed as Homo sapiens) [compound 227]
14,++ (>20% = ++),228 (LEYEAPKLY; listed as Homo sapiens) [compound 228]
15,++ (>20% = ++),229 (AEDLEKKYA; listed as Homo sapiens) [compound 229]
16,+++ (>50 = +++),230 (AEALVDGKW; listed as Homo sapiens) [compound 230]
17,+++ (>50 = +++),231 (AEALVDGKWQEF; listed as Homo sapiens) [compound 231]
18,++ (>20% = ++),232 (YEIRAEAL; listed as Homo sapiens) [compound 232]
19,++++ (>75% = ++++),233 (QEDKATQTL; listed as Homo sapiens) [compound 233]
20,+ (>10% = +),234 (TEEPQRLFY; listed as Homo sapiens) [compound 234]
21,+++ (>50 = +++),235 (SESLPRAPL; listed as Homo sapiens) [compound 235]
22,+++ (>50 = +++),236 (LEDQLKPMLEW; listed as Homo sapiens) [compound 236]
23,+++ (>50 = +++),237 (QEIGQKTSV; listed as Homo sapiens) [compound 237]
24,+++ (>50 = +++),238 (VEDDNYKLSL; listed as Homo sapiens) [compound 238]
25,++ (>20% = ++),239 (DEDYTYLIL; listed as Homo sapiens) [compound 239]
26,+++ (>50 = +++),240 (MELQVSSGF; listed as Homo sapiens) [compound 240]
27,++++ (>75% = ++++),241 (QELLDIANYL; listed as Homo sapiens) [compound 241]
28,+++ (>50 = +++),242 (CDAQIQYSY; listed as Homo sapiens) [compound 242]
29,++++ (>75% = ++++),243 (VEQINISQDW; listed as Homo sapiens) [compound 243]

# Second part, the substance before the results:
row,Substance,"Peptide exchange (MHC class I binding score, peptide exchange yield)"
1,181 (HEVAQDDHL; listed as Homo sapiens) [compound 181],++ (>20% = ++)
2,182 (EELHAALSEW; listed as Homo sapiens) [compound 182],++++ (>75% = ++++)
3,183 (KEMQVTISQQL; listed as Homo sapiens) [compound 183],++++ (>75% = ++++)
4,184 (EEQLLQKVM; listed as Homo sapiens) [compound 184],++++ (>75% = ++++)
5,185 (TEANVQALF; listed as Homo sapiens) [compound 185],++++ (>75% = ++++)
6,186 (EEIFAHLGL; listed as Homo sapiens) [compound 186],+++ (>50 = +++)
7,187 (TEQALRLSV; listed as Homo sapiens) [compound 187],++++ (>75% = ++++)
8,188 (AEFVPKADLL; listed as Homo sapiens) [compound 188],+++ (>50 = +++)
9,189 (ALNGDIYVW; listed as Homo sapiens) [compound 189],++++ (>75% = ++++)
10,190 (NEAGEVSKHF; listed as Homo sapiens) [compound 190],+++ (>50 = +++)
11,191 (AEHDMKSVL; listed as Homo sapiens) [compound 191],+++ (>50 = +++)
12,192 (LEIMTNLVTL; listed as Homo sapiens) [compound 192],++++ (>75% = ++++)
13,193 (RELRPLFDRQW; listed as Homo sapiens) [compound 193],+++ (>50 = +++)
14,194 (TEGDVLNYIF; listed as Homo sapiens) [compound 194],+++ (>50 = +++)
15,195 (MEIKGTVTEF; listed as Homo sapiens) [compound 195],+++ (>50 = +++)
16,196 (TELEVKIRDW; listed as Homo sapiens) [compound 196],++++ (>75% = ++++)
17,197 (NEILTIHF; listed as Homo sapiens) [compound 197],++ (>20% = ++)

row,Substance,"Peptide exchange (MHC class I binding score, peptide exchange yield)"
1,198 (REEEANVVL; listed as Homo sapiens) [compound 198],+++ (>50 = +++)
2,199 (AELPENLKALF; listed as Homo sapiens) [compound 199],+++ (>50 = +++)
3,200 (KELSVFKKF; listed as Homo sapiens) [compound 200],+++ (>50 = +++)
4,201 (MEILWKTLT; listed as Homo sapiens) [compound 201],++++ (>75% = ++++)
5,202 (RELPLVLLA; listed as Homo sapiens) [compound 202],++ (>20% = ++)
6,203 (REILHAQTL; listed as Homo sapiens) [compound 203],+++ (>50 = +++)
7,204 (YERPTLVEL; listed as Homo sapiens) [compound 204],+++ (>50 = +++)
8,205 (MEIEGAGNFL; listed as Homo sapiens) [compound 205],++++ (>75% = ++++)
9,206 (SEDPEKYYL; listed as Homo sapiens) [compound 206],+++ (>50 = +++)
10,207 (LEGGGRGGEF; listed as Homo sapiens) [compound 207],++ (>20% = ++)
11,208 (SEFLLRIF; listed as Homo sapiens) [compound 208],++ (>20% = ++)
12,209 (AEGEPPPAL; listed as Homo sapiens) [compound 209],+++ (>50 = +++)
13,210 (AEGEPPPALAW; listed as Homo sapiens) [compound 210],+++ (>50 = +++)
14,211 (LEMLDAHRL; listed as Homo sapiens) [compound 211],+++ (>50 = +++)
15,212 (SEASVYLFRF; listed as Homo sapiens) [compound 212],+++ (>50 = +++)
16,213 (DEDLFHKL; listed as Homo sapiens) [compound 213],++ (>20% = ++)
